Measurements published in the supplement of paper PMC7877785.
± gives the uncertainty stated by the source.

Assay: self-splicing fitness, log relative to wild type (ln ratio); higher = more splicing; Tetrahymena group I intron in knt gene, E. coli kanamycin selection, DiMSum; sequences stand for … in CUCUCU…GGAGGGAAAAGUUAUCAGGCAUGCACCUGGUAGCUAGUCUUUAAACCAAUAGAUUGCAUCGGUUUAAAAGGCAAGACCGUCAAAUUGCGGGAAAGGGGUCAACAGCCGUUCAGUACCAAGUCUCAGGGGAAACUUUGAGAUGGCCUUGCAAAGGGUAUGGUAAUAAGCUGACGGACAUGGUCCUAACCACGCAGCCAAGUCCUAAGUCAACAGAUCUUCUGUUGAUAUGGAUGCAGUUCACAGACUAAAUGUCGGUCGGGGAAGAUGUAUUCUUCUCAUAAGAUAUAGUCGGACCUCUCCUUAAUGGGAGCUAGCGGAUGAAGUGAUGCAACACUGGAGCCGCUGGGAACUAAUUUGUAUGCGAAAGUAUAUUGAUUAGUUUUGGAGUACUCGUGGUCG
Procedure, shortened: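 Colonies from six replicate transformations of E. coli BL21(DE3) were pooled and amplicon-sequenced on an Illumina HiSeq 2500. The library placed an intron with all eight P1ex-region nucleotides randomised inside the knt kanamycin-resistance gene on pET-22b(+), and cells grew overnight at 37°C or 30°C on LB agar with or without 25 μg/mL kanamycin (plus 100 μg/mL carbenicillin, 50 μM IPTG, 0.2% rhamnose). Fitness is the DiMSum error-weighted combination of wild-type-normalised replicate fold changes, kanamycin versus none.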

| Sequence | self-splicing fitness (ln) (30 °C) | self-splicing fitness (ln) (37 °C) |
| --- | --- | --- |
| GAGGAGCAAUAUUACGUUAU | -3.32 ± 0.23 | -2.96 ± 0.32 |
| GAGGAGCAAUAUUACGUUUC | -2.74 ± 0.42 | – |
| GAGGAGCAAUAUUACGUUUG | -3.33 ± 0.16 | -1.92 ± 0.13 |
| GAGUAGCAAUAUUACGAAUA | -2 ± 0.14 | -1.76 ± 0.14 |
| GAGUAGCAAUAUUACGAGCU | -1.64 ± 0.073 | -0.0858 ± 0.11 |
| GAGUAGCAAUAUUACGAGGG | -3.5 ± 0.44 | -1.94 ± 0.28 |
| GAGUAGCAAUAUUACGAGUC | -3.59 ± 0.34 | -1.48 ± 0.27 |
| GAGUAGCAAUAUUACGCACG | -1.77 ± 0.21 | – |
| GAGUAGCAAUAUUACGCACU | -3.18 ± 0.19 | -1.34 ± 0.36 |
| GAGUAGCAAUAUUACGCAGU | -3.14 ± 0.39 | -2.03 ± 0.22 |
| GAGUAGCAAUAUUACGCCCG | -0.892 ± 0.21 | -1.03 ± 0.31 |
| GAGUAGCAAUAUUACGCCUC | -2.22 ± 0.24 | -3.01 ± 0.47 |
| GAGUAGCAAUAUUACGCGGU | -3.68 ± 0.31 | -2.78 ± 0.48 |
| GAGUAGCAAUAUUACGGAUU | -1.41 ± 0.073 | -0.46 ± 0.095 |
| GAGUAGCAAUAUUACGGCGU | -0.448 ± 0.17 | 0.221 ± 0.18 |
| GAGUAGCAAUAUUACGUAAG | -2.82 ± 0.14 | 0.0773 ± 0.14 |
| GAGUAGCAAUAUUACGUAGU | -4.34 ± 0.31 | -2.68 ± 0.2 |
| GAGUAGCAAUAUUACGUAUA | -2.4 ± 0.29 | -1.52 ± 0.22 |
| GAGUAGCAAUAUUACGUAUC | -3.05 ± 0.14 | -0.698 ± 0.11 |
| GAGUAGCAAUAUUACGUCAC | -3.28 ± 0.24 | – |
| GAGUAGCAAUAUUACGUCGC | -1.31 ± 0.22 | -1.42 ± 0.26 |
| GAGUAGCAAUAUUACGUUAC | -4.57 ± 0.33 | -1.57 ± 0.17 |

| Sequence | self-splicing fitness (ln) (30 °C) | self-splicing fitness (ln) (37 °C) |
| --- | --- | --- |
| GAGUAGCAAUAUUACGUUGG | -3.06 ± 0.25 | -3.3 ± 0.46 |
| GAUAAGCAAUAUUACGACAG | -3.46 ± 0.24 | -1.89 ± 0.23 |
| GAUAAGCAAUAUUACGACGA | -0.165 ± 0.12 | -0.626 ± 0.11 |
| GAUAAGCAAUAUUACGAGGC | – | -2.76 ± 0.44 |
| GAUAAGCAAUAUUACGAGUC | -3.11 ± 0.27 | -1.32 ± 0.17 |
| GAUAAGCAAUAUUACGAGUU | -2.26 ± 0.14 | -1.27 ± 0.16 |
| GAUAAGCAAUAUUACGAUGA | -0.666 ± 0.097 | -0.376 ± 0.11 |
| GAUAAGCAAUAUUACGCAAG | -2.51 ± 0.25 | -1.34 ± 0.21 |
| GAUAAGCAAUAUUACGCUAC | -2.85 ± 0.4 | -2.31 ± 0.34 |
| GAUAAGCAAUAUUACGGAUG | -2.76 ± 0.11 | -1 ± 0.11 |
| GAUAAGCAAUAUUACGGGAG | -4.18 ± 0.25 | -2.34 ± 0.15 |
| GAUAAGCAAUAUUACGGGCG | -1.41 ± 0.11 | -0.837 ± 0.13 |
| GAUAAGCAAUAUUACGGUAA | -2.64 ± 0.22 | -1.46 ± 0.15 |
| GAUAAGCAAUAUUACGGUCG | -0.842 ± 0.1 | 0.117 ± 0.13 |
| GAUAAGCAAUAUUACGUAUC | -3.9 ± 0.18 | -2.67 ± 0.27 |
| GAUAAGCAAUAUUACGUCCG | -4.76 ± 0.36 | -2.1 ± 0.22 |
| GAUAAGCAAUAUUACGUGCU | -2.32 ± 0.18 | -1.71 ± 0.19 |
| GAUAAGCAAUAUUACGUUAC | -2.69 ± 0.2 | -2.09 ± 0.35 |
| GAUCAGCAAUAUUACGAACU | -0.585 ± 0.056 | 0.06 ± 0.073 |
| GAUCAGCAAUAUUACGAAUG | -1.15 ± 0.075 | -0.0569 ± 0.11 |
| GAUCAGCAAUAUUACGACAU | -0.0993 ± 0.012 | 0.102 ± 0.032 |
